Laboratory results from the nanobody polyreactivity screen of Harvey et al. (2022).

Assay: yeast display, Sf9 membrane polyspecificity reagent, FACS + sequencing; frameworks hold sequencing errors
Procedure, shortened: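 In a synthetic yeast display library (Saccharomyces cerevisiae BJ5465), nanobody expression was induced with galactose for 36–48 hours. FACS gates were set low and high (top ~1%) using anti-HA fluorescence for expression and streptavidin fluorescence for binding of the Sf9 membrane reagent. Each polyreactivity label is drawn from the gate of origin.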

Sequence	polyreactivity (PSR sort gate)
EDQLGESGGGLVQAGGSLRLSCAASGRTFYSYARGWSRQAPVKERELVAGINGGGSTYYADSVKGRFTISRDNAKNTVYLQMNSLKPEDSPVYYCAARRYDIRYYYVTYRPPKMYYWGQGTQVTVSS	high polyreactivity
EEELVESGGGFVQVGGSLRLSCAASGSIFVENAMGWYRQAPGKARELVAAITSGGSTNYADSVKGRFTISRDNAKNTVYLQMNSLKPEDTAVYYCNADENYGYYTHFGYWGQGTQVTVSS	low polyreactivity
EEELVESGGGLVQAGGSLRLSCAASGRTFVYNAMGWYRQAPGKERELVATITRGVSTNYADSVKGRFTISRDNAKNTVYLQMNSLKPEDTAVYYFAAVWYYQFGVWGYYWGQGTQVTVSS	low polyreactivity
EVQIVESGGCLVQAGGSLGIRCAASGRIFNIYAMGWYRQAPGKERELFAAISRGGGSKYYADSVKGRFTISRDNAKKTVDLQLNRLKPVDTAVYYCNTDRFPSGRIHRYNYWGQGTQVSVSS	low polyreactivity
EVQLVESGGGLLQPGGSLRVSFAASGYIYSRYRMGWYRQAPGKGREFVAAISGGSSTNYADSVKGRFTISRDNSKNTVFLQMNSLRAEDTAVFYCADFKIDSDPRVYWGQGTQVTVSS	low polyreactivity
EVQLVESGGGLVQAGGSLRLSCAASGFIFVSYAMGWYRQAPGKERELVAAISWSGGNTYYADSVKGRFTISRDNAKNTVYLQMNSLKPEDTAVYYCNTDKRSYPTHRRDFGYWGQGTQVTVSS	low polyreactivity
EVQLVESGGGLVQAGGSLRLSCAASGGTFRYYAMGWSRQAPGKERELVASSSSGGSTNYADSVKGRFTISRDNAKNTVYLQMNRLKPEDTAVYYCARRRFYYGHHPGSSWYDYWGQGTQVSVSS	low polyreactivity
EVQLVESGGGLVQAGGSLRLSCAASGRIFKYYTMGWYRQAPGKERELVAAISRDDSTNYADSVKGRFTISRDNAMNTVYLQMNSLKPEDTAVYYCAKGYHQYAGFYYWGQGTQVTVSS	high polyreactivity
EVQLVESGGGLVQAGGSLRLSCAASGRTFNRYTMGWYRQAPGKERELVAAISRGAGTNYADSVKGRFTISRDNAKNTVYVQMNSLKPEDTAVYYCNARPYGWYASHEYGYWGQGTQVTVSS	high polyreactivity
EVQLVESRGGLVQAGGSLRLSSADSGLTFPYNTMGWYRQAPGTERELVAAITARGGRTYYADSVKGRFTISRDNAKNTVYLQMNSLKPEDTAVYYCNADRTRGYQRYDYWGQGTQVTVSS	high polyreactivity
HAQLQESGGGMVQAGGSLRRSCAASGSIILFSGMGWYRRARGKERELVASIGFGSITYYADRVKGRFTISRDNANNTVYLQMNSLKPEDTAVYYCAVQVQDESWLDYWGQGTQVTVSC	low polyreactivity
HDHLVESGAGLVQAGGSLRLSCAASGLIFPSNAMGWYRQAPGKERELVAAITNGGRTYYADSVKGRFTISRDNATNTVYLQMNSMKPEDTSVYYCNAGYTYRGYWSYGYWGQGTQVTVSS	high polyreactivity
HFQREESGGGLVQAGGSLRLTCAASGSTFGPYVMGWYRQARGKERELVAAISDTTGNTYYADSVKGRFTLSRDNAKNTVYLQMNSLKPEDTAVYYCNVDWYWGDYDYRGQGTQVTVSS	low polyreactivity
HLQLVESGGGLVQAGGSLRLSCAASGRIFPGYAMGWYRQAPGKERELVAAIDGTGTSTYYADSVKGRFTISRDNAKNTVDLQMNSLNPEDTAVYYCAADGRPRGTFGYWGQGTQVTVSS	low polyreactivity
HLQMQESGGGLVQAGGSLRLSCASSGSIFQATYMGWYRQAPGKEREFVASITYGSITNYADSVKGRFTIGRDNAKDTLYLQMNSLKPEDTAVYYCAVDRHYIPAFHYWGQGTQVTVSS	low polyreactivity
HVHQQGSGGGLAQARDSLRLSCAASGTNFSEYNNGLVSQGAGQRTRTCCRYWCWGNTYYADSAKGRLTSSRDNAKYNVDLQKNSLKPEDTAVYYCAFILPYPSRHIDRGQGTQVTVSS	high polyreactivity
HVKLQESCGGLVPAGGSLRLSSAASATISYARNMASYLQAPGTERELVAAIDRGASTYYADSVKGLFTISRDNAKNTVYLQIYSLKPEDTAVYYCAAEYHDRWEDRYWGQGTQGTVSS	high polyreactivity
HVLLQESGGGLVQAGGTLRLSCAASGTITTDIRMGWYRLAPGKEREFVASIDGCSTTYYADSVKGRFTISRDNAKNTVYLQMNSLKPEDTAMYYCAAREATEFYLFYWGQGTQVTVSS	low polyreactivity
HVNLVESGGGLVKAGGSLRLTCDASGITFYEYAMGRYRRAPGKELELVAGIRLSGSTTYYADSVKGRFTISRDNSKNTVYLQMHSLKPEDTAVYYCNVDYYSGLYDYDSWGQGTQVTVSS	low polyreactivity
HVQLEESGGGLVQAGGSLRLSCAASGSISRANPSGWSRTAPGKERELLPANSRGGTTTYYADSVKGRFTISRDNAKNTVYLQMNSLKPEDTAVYYCAAVAGGGFPRWRIYFWPKGDYWGQGTQVTVSS	high polyreactivity
HVQLGESGGGLVQAGGSLRLSCAASGSTFFPYAMGRYRQAPGKEMELVAAISYSGDSTYYADSVKGRFTISRDTAKNTVYLQMNSLKPEDNAVYYCNAVYFRYRYKYWGQGSQVTVSS	high polyreactivity
HVQLQESGGGLVLAGGSLRLSCPASGNIVVYSYMGWYRQAPGKAREFVAAIGAGSTTYYADSVSRFTISRDNAKNSVYLQMNSLKQVDTAVYYCSVEFQYAGFWYWGQGTQVTVSS	low polyreactivity

Sequence	polyreactivity (PSR sort gate)
HVQLQESGGGLVQAGGSLRLSCAASGNISYSRNMGWYRQAPGKERELVAAIDRGAITYYADSVKGRFTISRDNAKNTVYLQIYSLKPEDTAVYYCAAEYHDRGDHRYWGQGTQVTVSS	high polyreactivity
HVQLQESGGGLVQAGGSLRLSSAASATITYSRNMGWYRQAPGKELELVAAIDRGAITYYADSVKGRFTISRDNAKNTVYLHIYSLKPEDTAVYYCAAVYHDRWDHRFWGQGTQVTVSS	high polyreactivity
HVQLQESGGGLVQAGGSLRQSCAASGYIFPYYSMGLYRQAPGKERGLVACIAAGTTTNYADSVKGRFTISRDNAKNTVYLQMNSLKPEDAAVYYCAALNAFNTGHWYWGQGTQVTVSS	low polyreactivity
HVQLQESGGGLVQAGGSMRLTCAASGQKSSYYSMGWNRQAPGKEREFVATIAVGGTTNYADSVKGRFTISRDNAKNTVYLQMNSLKPEDTAVCFCAANSTQYTWFDYWGQGTQVPVSS	low polyreactivity
HVQLQESGGGLVQVGGSLRLSCAASGTIFIYGFLGWNRQAPGKERELVASINLGGITNYADSVKGRFTIRRDNAKNTVYLQMISLKPEDTAVYYCAAYVVTGQNYGYWGQGTQVTVSS	low polyreactivity
HVQLQESGGVLVQARGSLRLSCAASGNISYSRNMGWYRQAPGKERELVDAIDRGAITYYADSVKGRFTISRDNANNTVYLQIYSLKPEDSAVYYCAAEYHDRWDHRYWGQGSQVTVSS	high polyreactivity
HVQLVDSGAGLVQAGGSLRLSCAASGRTFAYYAMGWYREATRKERELVAAIDSSGGSTYYADSVKGRFTISRDNAKNTVYLQMNSLKPEDTAVYYCAASYPYDRYDQGGYGYWGQGTQVTVSS	low polyreactivity
HVQLVESAGGLVQAGGSLSLSCAASGSTFKLYAMGRYRQAPGKESEFVAGISWRGGSTYYADSVKGRFTISRDNAKNTVYFQMNSLKPEDTAVYYCAARSFSNIGYHGYGYWGQGTQVTVSS	high polyreactivity
HVQLVESGAGLVQAAGSLRLSCAASGRPLDSNAMGGYRQAPGKDRELVAAITYSGGSTYYADSVKGRFTISRDNAKNTVYLQMNSLKPEDTAVYYCAKVGRLYRVGGYDYWGQGTQVTVSS	low polyreactivity
HVQLVESGGGFVQAAGSLRLSCAASGSIFAGYAMGWYRQAPGKERELVAAINSSGGSTYYADSVKGRFTISRDNSKNTVYLQMKSLKPEDTAVYDCNRVYKRYYIGGYDYWGQGTQVTVSS	high polyreactivity
HVQLVESGGGLVQAGASLRLICAASGRIFWGYAMGWSRHAPGKERELVAGITYSGGSTYYADSVKGRFTISRDNAKNTVYLQMNSLKPEDTADYYCAAAKSYRSGSWYEYWGQGTQVTVSS	high polyreactivity
HVQLVESGGGLVQAGGILRLSCAASGRIFYRYEKGWYRQAPGKERELVAAITAGGNKYYADSVKGRFTISRDNAKNTVYLQMNSLKPEDTAVDYCGAGTTYSRYSVTRVDYWGQGTQVTVSS	high polyreactivity
HVQLVESGGGLVQAGGRLRLSCAASGRTFWYYTMGWYRQAPGKDRELVAAITSVGSTYYADSVKGRFTISRDNAKNTVYLQMNSLKPEDTAVYYCAKLYSYTHQSFDHWGQGTQVTVSS	high polyreactivity
HVQLVESGGGLVQAGGRLRLSCAPSGSIFGLYGMGWYRQAPGKEREFVAAISQSGGRTYYADSVKGRFTISRDNAQNTVYLQMNSLKPEDTAVYYCATYVQRRGQYGIYDYWGQGTQVTVSS	high polyreactivity
HVQLVESGGGLVQAGGSLRISCAASGRIFSTYTMGWYRQAPGKERELVAAIRANCGSTYYADSVKGRFTISRDNAKNTVYLQMNSLKPEDTAVYYCAALYRRYPYHYDSWGQGTQVTVSS	high polyreactivity
HVQLVESGGGLVQAGGSLRLSCAASGFTFDYNTMGWSRQAPGKEREVVAGISRGGGSTYYADSVKGRFTISRDNAKNTVYLQMNSLKPEDTAVYYCNTVLKRQRKNEYWGQGTQVTVSS	high polyreactivity
HVQLVESGGGLVQAGGSLRLSCAASGFTFNYNALGGYRQAPGKERELVAAIRRSGGSTYYADSVKGRFTISRDNAKNTVYLQMNSLKPEDTAVYYGAARQSFLYGDWGQGTQVTVSS	high polyreactivity
HVQLVESGGGLVQAGGSLRLSCAASGFTFSGYVMGWYRQAPGKERELVAAISNSGGRTYADSVKGRFTISRDNAKNTVYLQMNSLKPEDTAVYYCAKKPGGFSQASRVDYDYWGQGTQVTVSS	low polyreactivity
HVQLVESGGGLVQAGGSLRLSCAASGFTVYRYTLGWYRQAPGKERELVAAITWSGGNTYYADSVKGRFTISRDNAKNTVYLQMNSLKPEDTAVYYCAAYKPYSKSNYRGQGTQVTVSS	high polyreactivity
HVQLVESGGGLVQAGGSLRLSCAASGGIFYGNVMGWYRQAPGKERELVADITSVGSTYYADSVKGRFTISRDNAKNTVYLQMNSLKPEDTAVYYCAAEPDHVADSHSGYDYWGQGTQVTVSS	low polyreactivity
HVQLVESGGGLVQAGGSLRLSCAASGGTFTKYAMGWFRQAPGTEMELVAAISWRGTSTYYADSVKGRFTISRDNAKNTVYLQLYSLKPEDTAVHYCLPWVGYGRYKPGYKYDYWGQGTQVTVSS	high polyreactivity
